Laboratory results as given in patent US20180371086A1.

Target: HIV-1 Env gp120 of virus WITO, on infected cells (HIV-1)
Experiment: cell-based or functional assay

How did the killing EC50; HIV-infected CEM-NKr-CCR5-LucR CD4 T cells; PBMC donor 4176; virus WITO turn out when PGT-121 (antibody) was run?
The killing EC50; HIV-infected CEM-NKr-CCR5-LucR CD4 T cells; PBMC donor 4176; virus WITO was over 100 µg/mL.

And the killing EC50; HIV-infected CEM-NKr-CCR5-LucR CD4 T cells; PBMC donor 4288; virus WITO?
The killing EC50; HIV-infected CEM-NKr-CCR5-LucR CD4 T cells; PBMC donor 4288; virus WITO was over 100 µg/mL.
